Results from the supplement of paper PMC12042874.
± gives the uncertainty stated by the source.

assay: amyloid nucleation score (Sup35N fusion, yeast selection) (log enrichment); library NNK3; higher = more nucleation; inactive = no reads after selection
Outline: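 Nucleation score: DiMSum log enrichment of output over input reads, centred on the mode score of non-aggregating sequences. Only sequences with at least 100 input reads were kept. Reads came from Illumina sequencing of plasmid inserts before and after 7 days of growth at 30°C without adenine and uracil, in psi-negative yeast expressing Sup35N fused to peptides of 20 random codons after 24 hours of induction with 100 μM copper sulfate.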

Amyloid nucleation score, 0.853 ± 0.2:
RMILTSQLLQKENGLSVTIN

Amyloid nucleation score, -0.299 ± 0.69:
RQVFNAIAFFVLHR

Amyloid nucleation score, 0.394 ± 0.23:
RRIPITFIACNCTRTCWQMI

Amyloid nucleation score, 2.02 ± 0.092:
RMAEVFLLIDCNFFYFDRYM

Amyloid nucleation score, 1.89 ± 0.077:
RGVAVR

Amyloid nucleation score, 2.5 ± 0.067:
RHRQSPYIINSVVIFGNQGT

Amyloid nucleation score, 0.667 ± 0.16:
RRAYVKQGVEFRIWNCYYWL

Amyloid nucleation score, -0.083 ± 1.1:
RQGRYEHQRGPFSLVSQVG

Amyloid nucleation score, 0.882 ± 0.24:
RGCGVQMS

Amyloid nucleation score, 2.27 ± 0.073:
RNATIALCAGWVIYDSVFKG

Amyloid nucleation score, -0.846 ± 0.8:
RLKMGLSN

Amyloid nucleation score, 0.404 ± 0.15:
RGNIWIHKK

Amyloid nucleation score, inactive:
RFVYRVNNRSKVLSEARMCI
RFWFWQPVVYIIRWIRVPLA
RFWMRKY
RFYGDM
RGAIIFGKTMIYDSC
RGAVLLKNWL
RGHNRRMYTWRVCRPSHHCK
RGIHEIGVMLKSVSQLE
RGKLFLSLLIVYFTLFLSVM
RGMWSFHGYWRTGKYMATGG
RGPVNCYYRISPRRPRHVSE
RHCGRALCDWLVIRWGSGYT
RHGFWSVSFVSRQFSNILSC
RHLLTISKPEMMCGDADEYR
RHQDYLHADGLNMAISITRI
RHSLMRDYYNFLMLDCTE
RHSNDCMNFEVIILIDSCLE
RHSNMSRIPMVLNKEKPGTR
RHTPDSLQYFLVFKVSYGFL
RHVFFLC
RIDTRNDRSNYR
RIHVSKLLTWTGSSLVVWSA
RIINCDKLSQTTALYIKTFM
RISVAGLCASEAVAKCLRRG
RIVDGFLTW
RIVFSKVMLVEIRTSLWFCT
RIVSRWCDNLNHTDCECCVC
RKEVLYSYRNHLK
RKFDPSISGSCWNVGISCVV
RKGFKAIGY
RKKLEGVFVRLFQFANPIVG
RKLSAHLQEGD
RKPHMTL
RKSGYFP
RKVGRLIPFHFCSN
RKVKILWNDTLTFRT
RLARADNILLGRNSVSSSVK
RLFLGVGCMS
RLFLINSGASDPNSQMSNLR
RLGCCGVSSEWVCRKYLLRG
RLGWFYRNIYLLTVEVGRGR
RLIIYSFARSQL
RLIWFE
RLKLMRP
RLLKFASYFVKDSRYNPDCF
RLMLLVTPAISFMSF
RLPLLTTKSGMSDTYSAP
RLSIAASFLSLFRYVDFNSL
RLSMNLNTVHVKHKECVPYR
RLTGEMRRCVVHGKRSHRVF
RLYLVGYRLIRCRFGILGAC
RLYVPLLVDVLWEKCKHSNV
RMDETWNITRKNWQDSY
RMDNCSGDI
RMESTYGYVLDVSIEVLWGI
RMFMWENEMDLSTSRVKGYG
RMFVI
RMHGETARWLGAQIWSDRSC
RMNYNAYRIFLTPISDWCNL
RMVRRDRNKYSILLGLVMSN
RNHGGNDSDILRRSESMSDR
RNKSSNFREHPVTSRITCRS
RNLKN
RNLVWA
RNTDLL
RNVGKGNAVQSGPAWIERS
RPEAAYSVKYLVLV
RPTTIGINNDW
RPYHSEKYDKFVDAMSFWCW
RQCCCSLKHIVWQPLGLCRK
RQGCKVCRWLRSKSLLLRRM
RQGPIYPWVLC
RQIMGQKRKNRQESFGFVGC
RRARFFVHAQVRWVCFWAMK
RRFCRYVYEMG
RRHKLW
RRHLITSVHQTLIVVGFDPR
RRIFCLLVANDRLSMRVKCP
RRKRSQSE
RRLCRYCDVILRNFMHKIQW
RRLPPIRCSHNLNSVPQD
RRLPSELYMSYHYHFFFKSG
RRLSM
RRMTSYFL
RRPLVWKFFQNLGTMN
RRPVRSSNGALTLICRDREF
RRSLHCIDCSRFPLIFHCTV
RRSSRSRRHAKRRRAIVRCG
RRSTQLKRQYKSL
RRTDGATEACISTSGPEYIV
RRWCLVAIIPIELNAGTEQH
RRYSRIRYRRKLVNWLFYIM
RSCGVFHQRARVHCCIKSLP
RSCSLWVY
RSCYEVLRHGREL
RSDENWRMTYWRAGCRVLDV
RSDVYCWDNYRLEGSGQSSL
RSGFRLLIWYRKQMICLCNL
RSGKVSFFIGYNVVGLMRFR
RSIVNSRALGLAADRRLEFS
RSIYCLRVNTGYMNKFVVLR
RSLSRNFSLCMGGSDRSGGL
RSMTWFSQDYVSVHRVL
RSPTVL
RSQEVKTVGSLWQFFVSVLG
RSRGWDWFEVSIIVRCSMWD
RSSDSDMSLECKAVE
RSSLLSRVLSEITHSWQLCA
RSSSIYYICFQTFTRCNYPV
RSVTNGQSCLRTVGILSFLA
RSWQEMFCEWSSALDWDWSV
RSYLSEHSNYGAKSSYYGIF
RSYTDMCP
RTFRSFSQVYRPILRRGHSG
RTIYTLPSCEIEGDLWHLSG
RTLFYFLDDSQFVLV
RTNDHVNW
RTSLGSCKYHLVFFYRVLVW
RTSLNGTLGVLSRYGWNISE
RTSMPTTHGGLVLQSWDYRP

Amyloid nucleation score, 2.17 ± 0.084:
RFYRCNYYRM

Amyloid nucleation score, 1.19 ± 0.11:
RMLGLNQYCSMLICTIVNFS

Amyloid nucleation score, 1.46 ± 0.11:
RSFHNHHWTVNY

Amyloid nucleation score, 2.9 ± 0.068:
RMIRNIFGSHAVLCFGCKC

Amyloid nucleation score, 2.59 ± 0.065:
RFYVYIINHHAPVYWVSRYS

Amyloid nucleation score, 1.23 ± 0.12:
RLRLGAAGRQGSEVVYNWSM

Amyloid nucleation score, 1.34 ± 0.081:
RLICLMGSLW

Amyloid nucleation score, -0.363 ± 1.4:
RKSGYYLIVMRALNREPTPV

Amyloid nucleation score, 0.322 ± 0.62:
RRCNVMLKNDLNCLPSSLFI

Amyloid nucleation score, 1.48 ± 0.11:
RIQCLCVDVLSVMLSVHA

Amyloid nucleation score, 0.92 ± 0.16:
RTRFQITCQEETTCPRFS

Amyloid nucleation score, 0.879 ± 0.25:
RQSCGFILQWDKLCFSRDRT

Amyloid nucleation score, 1.18 ± 0.12:
RSTVHRYSCDNCVEVIISKQ

Amyloid nucleation score, -0.076 ± 0.73:
RREGGTPIAHPLLGPGP

Amyloid nucleation score, 2.39 ± 0.072:
RPFYLWNLNIICCPFIQTVK

Amyloid nucleation score, 1.6 ± 0.1:
RRVNFVNYSLWV

Amyloid nucleation score, -0.555 ± 0.69:
RTLQVWHDWVVG

Amyloid nucleation score, -0.663 ± 1.1:
RGSMRPPSVSQMQCRYKDRF

Amyloid nucleation score, 2.77 ± 0.053:
RSFSNSDRMVSNLQFCYYFG

Amyloid nucleation score, 0.743 ± 0.16:
RTLNYFSHVCQSSINWSSLV

Amyloid nucleation score, -0.725 ± 0.84:
RKTSSY

Amyloid nucleation score, 1.72 ± 0.088:
RIVIPMVWEYIFSDFVFG

Amyloid nucleation score, 0.732 ± 0.28:
RNGDCLWIFR

Amyloid nucleation score, 0.197 ± 0.55:
RNLRYICRFALGGVARLWCG

Amyloid nucleation score, 1.8 ± 0.074:
RSLHWNLGLCIWYNEFRDLM

Amyloid nucleation score, 2.35 ± 0.069:
RLYQFCFDENSIQLFIYP

Amyloid nucleation score, 2.29 ± 0.06:
RKCLMMCDYCITLNM

Amyloid nucleation score, 0.014 ± 0.31:
RRCPYIRESIYKFSLAKCSF
